From paper PMC5430550 (Scientific Reports, 2017)

Columns and labels:
[1] = biological target: T1, RlmH (ribosomal large-subunit methyltransferase H) (Escherichia coli, UniProt P0A8I8); assay: X-ray crystal structure, […] Å; conditions: co-crystallised with 2 mM sinefungin, pH 8.5, 16 °C; SAM-binding pocket, two ligands per dimer
T1 construct: full length (155 residues, ~17 kDa), first Met replaced by MHHHHHHV (N-terminal His6 tag kept), expressed in E. coli BLR(DE3), homodimer

[2] = biological target: RlmH (ribosomal large-subunit methyltransferase H) (Escherichia coli, UniProt P0A8I8, E138A); assay: isothermal titration calorimetry, sequential binding model; conditions: 50 mM sodium phosphate pH 6.8, 200 mM KCl, 5% glycerol, 1 mM β-mercaptoethanol, 25 °C; first SAM site of the dimer; read-out: Calculated K D1
Sequence of RlmH (ribosomal large-subunit methyltransferase H) (Escherichia coli, UniProt P0A8I8, E138A) (P0A8I8 2-155 E138A): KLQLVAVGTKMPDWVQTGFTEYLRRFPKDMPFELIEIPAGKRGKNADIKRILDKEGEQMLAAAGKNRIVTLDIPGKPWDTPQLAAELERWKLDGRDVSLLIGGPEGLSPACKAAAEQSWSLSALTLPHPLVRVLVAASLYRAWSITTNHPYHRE
From the text: (§1) isothermal titration calorimetry, sequential binding model on RlmH (ribosomal large-subunit methyltransferase H)

[3] = biological target: T1, RlmH (ribosomal large-subunit methyltransferase H); assay: as above; conditions: 50 mM sodium phosphate pH 6.8, 200 mM KCl, 5% glycerol, 1 mM β-mercaptoethanol, 25 °C; first SAM site of the dimer; read-out: Calculated K D1
From the text: as §1

[4] = biological target: RlmH (ribosomal large-subunit methyltransferase H) (Escherichia coli, UniProt P0A8I8, E138Q); assay: as above; conditions: 50 mM sodium phosphate pH 6.8, 200 mM KCl, 5% glycerol, 1 mM β-mercaptoethanol, 25 °C; first SAM site of the dimer; read-out: Calculated K D1
Sequence of RlmH (ribosomal large-subunit methyltransferase H) (Escherichia coli, UniProt P0A8I8, E138Q) (P0A8I8 2-155 E138Q): as the sequence (P0A8I8 2-155 E138A) above, with A137Q counted along it
From the text: as §1

[5] = tested on: RlmH E138A (Escherichia coli (ASKA clone JW0631)); assay: competition; conditions: pseudouridine 1915 lacking N3-methylation (delta-rlmH), Single-turnover competitive methylation assay, mutant pre-incubated with heat-activated 70S ribosomes 20 min at 25 C before wild-type RlmH-[3H]SAM
[6] = tested on: RlmH R154A (Escherichia coli (ASKA clone JW0631)); assay: competition; conditions: pseudouridine 1915 lacking N3-methylation (delta-rlmH), Single-turnover competitive methylation assay, mutant pre-incubated with heat-activated 70S ribosomes 20 min at 25 C before wild-type RlmH-[3H]SAM
[7] = tested on: RlmH H153F (Escherichia coli (ASKA clone JW0631)); assay: competition; conditions: pseudouridine 1915 lacking N3-methylation (delta-rlmH), Single-turnover competitive methylation assay, mutant pre-incubated with heat-activated 70S ribosomes 20 min at 25 C before wild-type RlmH-[3H]SAM
[8] = tested on: RlmH Y152F (Escherichia coli (ASKA clone JW0631)); assay: competition; conditions: pseudouridine 1915 lacking N3-methylation (delta-rlmH), Single-turnover competitive methylation assay, mutant pre-incubated with heat-activated 70S ribosomes 20 min at 25 C before wild-type RlmH-[3H]SAM
[9] = tested on: RlmH E138Q (Escherichia coli (ASKA clone JW0631)); assay: competition; conditions: pseudouridine 1915 lacking N3-methylation (delta-rlmH), Single-turnover competitive methylation assay, mutant pre-incubated with heat-activated 70S ribosomes 20 min at 25 C before wild-type RlmH-[3H]SAM
[10] = biological target: the molecule itself; assay: SEC-MALS; Superdex S-200 HR10/30; 50 mM potassium phosphate pH 7.0, 300 mM KCl, 2 mM DTT, 5% glycerol; dialyzed protein injected at ~20 and ~200 µM (0.35 mg/ml and 3.85 mg/ml); same result at both

Nc1ncnc2c1ncn2[C@@H]1O[C@H](C[C@@H](N)CC[C@H](N)C(=O)O)[C@@H](O)[C@H]1O [SFG, sinefungin]
X-ray crystal structure, 2.1 Å [1]: crystal structures of E. coli RlmH bound to the cofactor SAM or to the inhibitor sinefungin

C[S+](CC[C@H](N)C(=O)O)C[C@H]1O[C@@H](n2cnc3c(N)ncnc32)[C@H](O)[C@@H]1O (stereo partly shown) [SAM, S-adenosyl-methionine]
Kd [2]: 6.7 ± 0.77 µM | Kd [3]: 5.58 ± 0.31 µM | Kd [4]: 7.05 ± 0.56 µM

delta-rlmH 70S ribosome (23S rRNA helix 69, pseudouridine 1915)
IC50 [5]: 3 µM | IC50 [6]: 40 µM | IC50 [7]: 3 µM | IC50 [8]: 3 µM | IC50 [9]: 3 µM

B1: ribosomal large-subunit methyltransferase H (RlmH), wild type, His6-tagged (enzyme, E. coli, UniProt P0A8I8 2-155, looked up)
chain: KLQLVAVGTKMPDWVQTGFTEYLRRFPKDMPFELIEIPAGKRGKNADIKRILDKEGEQMLAAAGKNRIVTLDIPGKPWDTPQLAAELERWKLDGRDVSLLIGGPEGLSPACKAAAEQSWSLSALTLPHPLVRVLVAESLYRAWSITTNHPYHRE
notes: RlmH (YbeA) of E. coli, 155 amino acids; rlmH gene from ASKA clone JW0631 in pET24b; no cleavage of the tag is described; Limits 2-155 follow from 'first methionine is replaced' and '155 amino acids'; also called YbeA; WT; source: E. coli BLR(DE3), purified (nickel IMAC twice, SEC on Superdex75); not shown: His6, N-terminal, kept
stoichiometry N [10]: 2

B2: RlmH R154A, His6-tagged (enzyme, E. coli, UniProt P0A8I8 2-155, looked up)
chain: KLQLVAVGTKMPDWVQTGFTEYLRRFPKDMPFELIEIPAGKRGKNADIKRILDKEGEQMLAAAGKNRIVTLDIPGKPWDTPQLAAELERWKLDGRDVSLLIGGPEGLSPACKAAAEQSWSLSALTLPHPLVRVLVAESLYRAWSITTNHPYHAE
notes: RlmH (YbeA) of E. coli, 155 amino acids; source: E. coli BLR(DE3), purified as the wild-type protein; not shown: His6, N-terminal, kept
stoichiometry N [10]: 2

B3: RlmH H153F, His6-tagged (enzyme, E. coli, UniProt P0A8I8 2-155, looked up)
chain: KLQLVAVGTKMPDWVQTGFTEYLRRFPKDMPFELIEIPAGKRGKNADIKRILDKEGEQMLAAAGKNRIVTLDIPGKPWDTPQLAAELERWKLDGRDVSLLIGGPEGLSPACKAAAEQSWSLSALTLPHPLVRVLVAESLYRAWSITTNHPYFRE
notes: as for B2
stoichiometry N [10]: 2

B4: RlmH Y152F, His6-tagged (enzyme, E. coli, UniProt P0A8I8 2-155, looked up)
chain: KLQLVAVGTKMPDWVQTGFTEYLRRFPKDMPFELIEIPAGKRGKNADIKRILDKEGEQMLAAAGKNRIVTLDIPGKPWDTPQLAAELERWKLDGRDVSLLIGGPEGLSPACKAAAEQSWSLSALTLPHPLVRVLVAESLYRAWSITTNHPFHRE
notes: as for B2
stoichiometry N [10]: 2
